Measurements from US20230203125A1.

Target: CD47 (UniProt Q08722)
Assay: cell-based or functional assay

Sequence of UniProt Q08722 (Q08722 19-323 limits assumed): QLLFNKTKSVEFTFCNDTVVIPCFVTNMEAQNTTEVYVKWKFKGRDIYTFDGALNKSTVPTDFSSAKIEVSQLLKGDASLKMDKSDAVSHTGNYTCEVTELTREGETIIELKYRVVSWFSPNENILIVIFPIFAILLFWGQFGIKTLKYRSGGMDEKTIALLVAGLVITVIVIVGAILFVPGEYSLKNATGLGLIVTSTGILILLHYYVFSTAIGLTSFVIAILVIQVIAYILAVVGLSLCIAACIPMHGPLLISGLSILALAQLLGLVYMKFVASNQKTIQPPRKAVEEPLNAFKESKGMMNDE

- Specific Lysis (%) of target cells DLD1-CEA, 24 h, effector-target ratio 1:1: 45.2%
Substance: SIRPγ fusion protein SIRPγ-CD28TM-CD28 (receptor)
